# Assay results published in publication PMC3034293 (Biochemistry, 2011).
# B1: Wild-type aldolase B (enzyme, human, UniProt P05062 1-364, looked up)
# chain: MAHRFPALTQEQKKELSEIAQSIVANGKGILAADESVGTMGNRLQRIKVENTEENRRQFREILFSVDSSINQSIGGVILFHETLYQKDSQGKLFRNILKEKGIVVGIKLDQGGAPLAGTNKETTIQGLDGLSERCAQYKKDGVDFGKWRAVLRIADQCPSSLAIQENANALARYASICQQNGLVPIVEPEVIPDGDHDLEHCQYVTEKVLAAVYKALNDHHVYLEGTLLKPNMVTAGHACTKKYTPEQVAMATVTALHRTVPAAVPGICFLSGGMSEEDATLNLNAINLCPLPKPWKLSFSYGRALQASALAAWGGKAANKEATQEAFMKRAMANCQAAKGQYVHTGSSGAASTQSLFTACYTY
# Biological target: the molecule itself
# Experiment: SEC
protein,measurement,value
B1,stoichiometry N,4
